Results reported in US20120022128.

What was measured:
[1] = test system: recombinant Akt
[2] = test system: T1, recombinant PKIB
T1 sequence: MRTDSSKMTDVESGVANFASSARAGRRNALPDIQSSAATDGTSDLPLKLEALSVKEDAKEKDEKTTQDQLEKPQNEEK

**Q.** Which results are given for recombinant PKA-C kinase?
**A.** phosphorylation of Akt-Ser473, in vitro kinase assay with recombinant proteins (western blot with anti-phospho-Akt (Ser473) antibody) [1]: phosphorylated Ser473-specific antibody detected phosphorylated Akt when PKA-C kinase reacted with recombinant Akt; phosphorylation of Akt-Ser473 by PKA-C, in vitro kinase assay with recombinant proteins [2]: the phosphorylation level of Akt (Ser473) was clearly enhanced by addition of PKIB
